Experimental data reported in the supplement of paper PMC11865577.

Columns and labels:
Experiment in all cases: pull-down binding Z-score (relative to library population); higher = stronger binding
[1] = test system: TO-3-N3-2 (biotin conjugate); settings: RNA library: Library-2
Outline: (§1)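 An RNA library (1 μg) carrying a Cy5 or Cy3 end label was heat-folded in phosphate/NaCl/KCl buffer, then incubated for 60 min at 25 °C with streptavidin beads loaded with 100 pmol of biotin-conjugated small molecule. The beads were washed three times, and bound RNA was released in hot SDS and hybridised to a DNA barcode microarray for 20 h at 55.5 °C. Each binding score was derived by subtracting the signal from beads without compound, averaging the barcoded replicate probes after removing the highest and lowest, and expressing the result as a Z-score relative to the library mean and standard deviation.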

[2] = test system: TO-N3 (biotin conjugate); settings: RNA library: Library-2
Outline: as §1

[3] = test system: G-clamp-N3 (biotin conjugate); settings: RNA library: Library-1 (pre-miRNA loops + repeats)
Outline: as §1

[4] = test system: TO-3-N3 (biotin conjugate); settings: RNA library: Library-2
Outline: as §1

[5] = test system: TO-N3-2 (biotin conjugate); settings: RNA library: Library-2
Outline: as §1

| Sequence | pull-down binding Z-score [1] | pull-down binding Z-score [2] | pull-down binding Z-score [3] | pull-down binding Z-score [4] | pull-down binding Z-score [5] |
| --- | --- | --- | --- | --- | --- |
| CACCUCCCGGCCCGGAGCUG [hsa-mir-4734] | -0.473 | -0.0704 | 0.0744 | -0.243 | 0.527 |
| CACGAGAUACCAGUGUGCACUUGUG [hsa-mir-542] | -0.425 | -0.441 | -0.858 | -0.51 | 0.103 |
| CACGAGAUUGGGUUGUGCAGAGGCUGACACUUG [hsa-mir-5004] | 0.0781 | -0.0226 | 0.93 | -0.363 | 0.63 |
| CACGCAUUUGCUUUACUUGCAAUGAUUAUA [hsa-mir-300] | 0.215 | 0.583 | -0.374 | 0.485 | 0.472 |
| CACGCCGCGCCGCCGGGUCCCUCCUCCCCGGAGAGGCUG [hsa-mir-4674] | -0.048 | 0.606 | 0.455 | 0.257 | 1.56 |
| CACUAAUGUGAUUAAUGUUGUUGUG [hsa-mir-3657] | -0.0793 | -0.611 | -1.39 | -0.405 | -0.402 |
| CACUACAAGAAGAAUGUAGUUGUG [hsa-mir-19a] | 0.234 | -0.154 | 1.3 | -0.108 | 0.739 |
| CACUCAGGCAGUGCCAUGAGC [hsa-mir-6811] | -0.366 | 0.408 | -0.12 | 0.249 | 0.422 |
| CACUCAGUAAAUAUUUGUUGAGUG [hsa-mir-1271] | -0.186 | -0.674 | 0.231 | -0.368 | -1.18 |
| CACUCCCGGGAUCCCCAGGGAC [hsa-mir-3176] | -0.144 | 0.25 | -1.23 | 0.149 | 0.68 |
| CACUCCCGUGCUUGUCCGAGGAGGGAGG [hsa-mir-149] | 0.731 | 2.63 | 1.29 | 1.78 | 2.78 |
| CACUCUCCCUAAUGGGGCUGAAGACAGCUCAGGGGCAGGGUG [hsa-mir-4472-1] | -0.583 | -0.273 | 1.88 | -0.357 | 0.191 |
| CACUGAUUCAGUAAAAUACUCAGUG [hsa-mir-891a] | -0.845 | -1.09 | -0.252 | -0.707 | -1.35 |
| CACUGCAGUUACCCUCCCCUCGGCGUUACUGAGCACUG [hsa-mir-637] | 0.224 | 0.603 | -0.893 | 0.22 | 0.948 |
| CACUUUCUGCUCUCUGGUGAAAGUG [hsa-mir-371a] | -0.0736 | -0.0106 | 0.951 | 0.0211 | -0.309 |
| CAGACAAUAUAGCUGAGUUUGUCUG [hsa-mir-215] | -0.547 | -1.24 | -0.604 | -0.801 | -1.03 |
| CAGACCAUGCCACAUCCGUCUG [hsa-mir-7152] | -0.604 | -0.651 | -0.704 | -0.515 | -0.334 |
| CAGACGGCUUUCUCUCCGAAUGUCUG [hsa-mir-2276] | -0.376 | -1.12 | -0.958 | -0.908 | -0.639 |
| CAGACUCUG [hsa-mir-4326] | -0.381 | -0.0561 | 1.33 | 0.067 | -0.0772 |

| Sequence | pull-down binding Z-score [1] | pull-down binding Z-score [2] | pull-down binding Z-score [3] | pull-down binding Z-score [4] | pull-down binding Z-score [5] |
| --- | --- | --- | --- | --- | --- |
| CAGACUGUCUUCCCAAAUAGCCUG [hsa-mir-4772] | -0.219 | -0.0312 | -1.42 | 0.00537 | -0.223 |
| CAGAGAUGAAAUUGGGACUCCUCU [hsa-mir-7157] | 0.343 | 0.499 | -0.282 | 0.189 | 0.835 |
| CAGAGCUGCAGCUGCUCCACCCUG [hsa-mir-6730] | 0.319 | 1.12 | -0.915 | 0.563 | 1.42 |
| CAGAGGCAUCGGGUCAG [hsa-mir-4746] | 0.516 | 1.19 | 1.75 | 0.807 | 1.35 |
| CAGAGGCUGGCUUUCCAAAACUCUG [hsa-mir-1913] | 0.266 | 0.884 | -0.379 | 0.996 | 0.235 |
| CAGAGGGAGGCCAAGAAGACCUCUG [hsa-mir-4793] | -0.445 | -0.402 | 2.73 | -0.656 | 0.354 |
| CAGAGGGGCUGGCAGUACUGCUCUG [hsa-mir-4649] | 0.258 | 1.08 | 2.75 | 0.999 | 1.22 |
| CAGAGGUCCCACAGCAGGGCUGGAAAGCACACCUGUGGGACUUCUG [hsa-mir-3922] | 0.0101 | 0.231 | 0.395 | 0.224 | -0.164 |
| CAGAGUGGGCUCACCUCUCGCCCACACUG [hsa-mir-6760] | -0.336 | -0.637 | -0.917 | -0.556 | -0.38 |
| CAGAGUGUGCAUGGCAGGCU [hsa-mir-7156] | 0.342 | 0.869 | -0.349 | 0.383 | 0.86 |
| CAGAGUUCCCUUCUUGUGAGCUCAG [hsa-mir-6733] | -0.714 | -0.415 | -0.936 | -0.518 | 0.42 |
| CAGAUACUUUUUAAAAUUUGUUUGAGUUGAGGCAGAUUAAAUAUCUG [hsa-mir-4742] | 0.104 | -0.82 | 0.164 | -0.76 | -0.673 |
| CAGCACUGAGCAGGCAGUGUUGU [hsa-mir-4288] | -0.325 | -0.149 | -0.48 | -0.241 | 0.42 |
| CAGCAGCAGCAGCAGCAGCAGCAGCAGCAGCAGCAGCAGCAGCAGCAG [r(CAG)16] | -0.0193 | 1.6 | 1.2 | 0.922 | 1.29 |
| CAGCCAUGACCUGACCUUCUGUCUG [hsa-mir-4677] | -0.165 | -0.0686 | -0.499 | -0.163 | 0.513 |
| CAGCCCCGUGUGUUGAGGAAGGAAGG [hsa-mir-940] | 0.769 | 1.24 | 1.54 | 0.485 | 1.95 |
| CAGCCCGUGGUGGGG [hsa-mir-3619] | 0.115 | 0.752 | 0.788 | 0.721 | 0.751 |
| CAGCCCUGCACUGAAC [hsa-mir-614] | 0.00113 | 0.941 | -1.84 | 0.285 | 1.39 |
